From PMC8095197 (bioRxiv, 2021) come the findings set out here.

In the assay the target is SARS-CoV-2 RBD (SARS-CoV-2, reference (Wuhan-Hu-1) …, UniProt P0DTC2). Briefly: ELISA.

B1: DH1047 IgG (antibody, V domains shown)
VH: QVQLVQSGAEVKKPGASVQVSCQASANTFTNHYIHWVRQAPGQGLEWMGIIYPTGGNTIYAQGFQGRVTMTRDTSLNTIYLELSSLRSEDTAVYYCARDVRVDDSWSGYDLLSGGTYFDYWGQGTLVTVSS
VL: not shown
Regarding B1, the binding result is “binds”.
